Legend:
[1] = biological target: T1, KRAB-CDC-SID (UniProt P03372); assay: cell_activity; conditions: COS-1
T1 sequence: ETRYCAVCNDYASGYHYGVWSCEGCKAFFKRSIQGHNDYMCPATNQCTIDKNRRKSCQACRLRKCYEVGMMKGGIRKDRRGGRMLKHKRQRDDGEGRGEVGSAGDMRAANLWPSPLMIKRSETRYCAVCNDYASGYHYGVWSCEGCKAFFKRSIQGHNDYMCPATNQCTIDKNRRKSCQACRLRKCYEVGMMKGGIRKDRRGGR

[2] = biological target: T2, CDC-KRAB (UniProt P03372); assay: cell_activity; conditions: COS-1 and CHO; no effect without ERE
T2 sequence: T1 sequence

[3] = biological target: T3, SID-CDC-KRAB (UniProt P03372); assay: cell_activity; conditions: COS-1
T3 sequence: T1 sequence

[4] = biological target: T4, SID-CDC (UniProt P03372); assay: cell_activity
T4 sequence: T1 sequence

[5] = biological target: T5, CDC (expressed in cells) (UniProt P03372); assay: cell_activity; conditions: COS-1; little effect in CHO
T5 sequence: T1 sequence

[6] = biological target: T6, KRAB-CDC (UniProt P03372); assay: cell_activity; conditions: COS-1 and CHO; no effect without ERE
T6 sequence: T1 sequence

[7] = biological target: T7, CDC-SID (UniProt P03372); assay: cell_activity
T7 sequence: T1 sequence

[8] = biological target: T8, CDC ERE binding module (ERα C domain - D hinge - C domain fusion) (UniProt P03372); assay: EMSA; conditions: apparent Kd from EMSA competition
T8 sequence: T1 sequence

[9] = biological target: T9, ERα (Homo sapiens) (UniProt P03372); assay: EMSA; conditions: EMSA competition
T9 sequence: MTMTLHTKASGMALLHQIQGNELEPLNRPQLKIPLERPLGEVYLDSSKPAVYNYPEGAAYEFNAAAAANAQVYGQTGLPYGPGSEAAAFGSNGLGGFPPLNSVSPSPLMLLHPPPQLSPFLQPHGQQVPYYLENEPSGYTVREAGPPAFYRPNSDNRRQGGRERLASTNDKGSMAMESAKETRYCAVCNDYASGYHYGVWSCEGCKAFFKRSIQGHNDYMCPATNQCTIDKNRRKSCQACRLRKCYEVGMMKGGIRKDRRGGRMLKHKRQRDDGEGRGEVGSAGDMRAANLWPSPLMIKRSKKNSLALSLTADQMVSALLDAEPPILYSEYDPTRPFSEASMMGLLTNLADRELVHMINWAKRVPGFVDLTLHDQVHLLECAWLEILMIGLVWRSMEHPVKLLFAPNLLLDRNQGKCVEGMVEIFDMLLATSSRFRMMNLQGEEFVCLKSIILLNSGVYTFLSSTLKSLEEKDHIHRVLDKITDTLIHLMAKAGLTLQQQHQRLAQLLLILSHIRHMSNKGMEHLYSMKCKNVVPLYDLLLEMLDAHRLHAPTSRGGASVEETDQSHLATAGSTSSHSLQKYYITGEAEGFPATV

[10] = test system: SID-CDC-SID; assay: cell_activity; conditions: COS-1; given as decreased about 60% of that observed with parent vector
[11] = biological target: ERα (expressed in cells) (UniProt P03372); assay: cell_activity; conditions: COS-1, E2; about 2-fold without ligand
[12] = COS-1 and CHO, no effect without ERE
[13] = COS-1, given as decreased about 60% of that observed with parent vector

Chain of SID-CDC-SID (chain, as listed by the source): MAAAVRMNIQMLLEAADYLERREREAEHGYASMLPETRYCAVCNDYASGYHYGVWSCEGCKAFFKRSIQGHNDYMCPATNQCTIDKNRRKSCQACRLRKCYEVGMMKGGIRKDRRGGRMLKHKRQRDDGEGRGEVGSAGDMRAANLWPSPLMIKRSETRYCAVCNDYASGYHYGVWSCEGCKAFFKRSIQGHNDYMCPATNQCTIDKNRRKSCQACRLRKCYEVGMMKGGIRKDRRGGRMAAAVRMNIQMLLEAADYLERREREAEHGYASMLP

## GGTCANNNTGACC (double strand) [SV40 enhancer/promoter with one consensus ERE]
[1]
  activity: 95 % repression
[2]
  activity: 80 % repression
[3]
  activity: 95 % repression
[4]; [12]
  activity: 50 % repression
[5]
  activity: 50 % repression
[6]
  activity: 50 % repression
[7]; [12]
  activity: 80 % repression

## GGTCANNNTGACC (double strand) [consensus ERE]
[8]
  Kd: 1490 pM
[9]
  Kd: 260 pM

## cathepsin D promoter
[4]; [13]
  activity: 60 % repression
[10]
  activity: 60 % repression
[7]; [13]
  activity: 60 % repression

## complement C3 promoter
[11]
  activity: 11 fold
